According to article PMC8473724:

Assays:
GRB2 = GRB2 (UniProt P62993); assay: anti-Myc co-IP, anti-GRB2 immunoblot; settings: reference: CD22-Myc wild type; sites Y807
ANKLE2 = assay: anti-FLAG co-immunoprecipitation, SILAC LC-MS; settings: Ramos PTP1B KO cells; n = 3; read off a plot; scale: log10 SILAC ratio
ARHGAP12 iso 2 = assay: anti-FLAG co-immunoprecipitation, SILAC LC-MS; settings: Ramos PTP1B KO cells; n = 3; read off a plot; scale: log10 SILAC ratio
ARHGAP12 iso 3 = assay: anti-FLAG co-immunoprecipitation, SILAC LC-MS; settings: Ramos PTP1B KO cells; n = 3; read off a plot; scale: log10 SILAC ratio
CDC20 = assay: anti-FLAG co-immunoprecipitation, SILAC LC-MS; settings: Ramos PTP1B KO cells; n = 3; read off a plot; scale: log10 SILAC ratio
PTRH2 = assay: anti-FLAG co-immunoprecipitation, SILAC LC-MS; settings: Ramos PTP1B KO cells; n = 3; read off a plot; scale: log10 SILAC ratio
TNK2 = assay: anti-FLAG co-immunoprecipitation, SILAC LC-MS; settings: Ramos PTP1B KO cells; n = 3; read off a plot; scale: log10 SILAC ratio
[1] = molecular target: intersectin-2 (ITSN2) [human (endogenous in Ramos)]; assay: anti-FLAG co-immunoprecipitation, SILAC LC-MS; settings: Ramos PTP1B KO cells; n = 3; read off a plot; scale: log10 SILAC ratio

Substance: CD22 (from UniProt P20273) Y807F
- binding against the reference (GRB2): lost

Substance: FLAG-PTP1B WT (protein tyrosine phosphatase 1B) (from UniProt P18031) D181A; Y46F
- enrichment (ANKLE2): 0.97
- enrichment (ARHGAP12 iso 2): 1.6
- enrichment (ARHGAP12 iso 3): 1.2
- enrichment (CDC20): 0.88
- enrichment (PTRH2): 1.4
- enrichment (TNK2): 0.6

Substance: FLAG-PTP1B WT (protein tyrosine phosphatase 1B) mutant D181A; Y46F [not stated] / intersectin-2 (ITSN2) [human (endogenous in Ramos)] chain 1 Y46F, chain 1 D181A
- enrichment [1]: 0.5
